This passage reports Kd results from PMC12598741 (2025).

Broadly, the Kd is the equilibrium constant for the complex coming apart.

Targets include h11A4 x L15-1 hIgG4; h11A4 x L15-4 hIgG4; h11A4 x L15-5 hIgG4; h11A4 x L15-3 hIgG4; h11A4 x L15-2 hIgG4; L15; 17C7 x L15 hIgG4.
Common to all, as to experiment: BLI

B1: mouse CD16 (mCD16), his-tagged (receptor)
chain: ALPKAVVKLDPPWIQVLKEDMVTLMCEGTHNPGNSSTQWFHNGRSIRSQVQASYTFKATVNDSGEYRCQMEQTRLSDPVDLGVISDWLLLQTPQRVFLEGETITLRCHSWRNKLLNRISFFHNEKSVRYHHYKSNFSIPKANHSHSGDYYCKGSLGSTQHQSKPVTITVQDPATTSSISLVWYHT
With B1, the Kd with h11A4 x L15-1 hIgG4 is 163 nM; with h11A4 x L15-4 hIgG4 it was 211 nM; in the experiment with h11A4 x L15-5 hIgG4, 197 nM; in the experiment with h11A4 x L15-3 hIgG4, 218 nM; in the experiment with h11A4 x L15-2 hIgG4, 119 nM; in the experiment with L15 it was 126 nM. In the experiment with 17C7 x L15 hIgG4, the affinity, expressed as Kd, was 16.3 nM.
